From patent US20260109761A1 (IP2IPO INNOVATIONS, published 2026)

Experiments:
huZIP12-ECD-GST [1] = target: T1, huZIP12-ECD-GST (human, UniProt Q504Y0 24-202); experiment: SPR single cycle kinetics (Biacore): mAb captured on protein A, huZIP12-ECD-GST injected at 3.12-800 nM
T1 construct: also called hZIP12-ECD-GST; human ZIP12-ECD-GST; not shown: glutathione S-transferase (GST) tag
Method: (§1) Single Cycle Kinetics (SCK) involves first capturing the mAb onto the protein A sensor surface and then sequentially injecting a series of concentrations of huZIP12-ECD-GST over the surface starting at the lowest concentration and ending with the highest concentration. The final concentration is followed by a dissociation phase where buffer only is passed across the surface followed by regeneration, where the remaining bound huZIP12-ECD-GST is removed from the surface by injection of a 10 mM Glycine pH 1.5 and 50 mM NaOH solution. The SCK is repeated for each monoclonal antibody providing duplicate data and the kinetics of each interaction is evaluated by the Biacore software.
Referring to FIG. 6, there are shown the kinetic parameters obtained for all antibody variants when screened with the 3.12 nM to 800 nM huZIP12-ECD-GST. […] Affinity.

huZIP12-ECD-GST [2] = target: T1, huZIP12-ECD-GST; experiment: SPR single cycle kinetics (Biacore): mAb captured on protein A, huZIP12-ECD-GST injected at 2.34-600 nM, extended dissociation
Method: as §1
A selection of the higher affinity antibody variants were re-tested at a lower concentration series with an extended dissociation time with the objective of obtaining a better assessment of the binding kinetics. Referring now to FIG. 7, there are shown the data for the monoclonal antibodies that were re-tested to optimise the binding kinetic data. Once again, three antibody variants, H3_W99H_L1, H3_W99HL2 and H3_W99H_VL-par, all appear to have a higher affinity than the parent antibody. The on-rate (ka), off-rate (kd) and overall affinity measurement (KD) are all improved compared to the 51B12 VH_VL_par parent antibody.

T1 sequence (Q504Y0 24-202): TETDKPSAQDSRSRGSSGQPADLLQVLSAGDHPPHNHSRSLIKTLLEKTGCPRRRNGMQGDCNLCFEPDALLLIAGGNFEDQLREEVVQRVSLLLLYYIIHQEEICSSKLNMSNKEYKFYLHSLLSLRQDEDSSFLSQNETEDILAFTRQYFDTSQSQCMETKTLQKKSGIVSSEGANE

Binder | Kd (huZIP12-ECD-GST [1]) [nM] | koff (huZIP12-ECD-GST [1]) [s⁻¹] | kon (huZIP12-ECD-GST [1]) [M⁻¹ s⁻¹] | Kd (huZIP12-ECD-GST [2]) [nM] | koff (huZIP12-ECD-GST [2]) [s⁻¹] | kon (huZIP12-ECD-GST [2]) [M⁻¹ s⁻¹]
51B12_VH_L1 (antibody, V domains shown, Fc null human IgG1 / human kappa) VH: QVQLVESGGGVVQPGRSLRLSCAASGFTFSDYGMHWVRQAPGKGLEWVAYISSGGTTIYYADTVKGRFTISRDNSKNTLYLQMNSLRAEDTAVYYCARWTNLYAMDYWGQGTTVTVSS VL: DIVLTQSPDSLAVSLGERATINCRASKSVSTQGYSYMHWYQQKPGQPPKFLIYLASNLESGVPDRFSGSGSGTDFTLTISSLQAEDVAVYYCQHSREVPYTFGGGTKVEIKR | 0.963 | 2.83e-05 | 29300 | – | – | –
H2_G66Q_L1 (antibody, V domains shown, Fc null human IgG1 / human kappa) VH: QVQLVESGGGVVQPGRSLRLSCAASGFTFSDYGMHWVRQAPGKGLEWVAYISSGGTTIYYADTVKQRFTISRDNSKNTLYLQMNSLRAEDTAVYYCARWTNLYAMDYWGQGTTVTVSS VL: DIVLTQSPDSLAVSLGERATINCRASKSVSTQGYSYMHWYQQKPGQPPKFLIYLASNLESGVPDRFSGSGSGTDFTLTISSLQAEDVAVYYCQHSREVPYTFGGGTKVEIKR | 0.968 | 3.34e-05 | 34600 | – | – | –
H2_K65P_VL-par (antibody, V domains shown, Fc null human IgG1 / human kappa) VH: QVQLVESGGGVVQPGRSLRLSCAASGFTFSDYGMHWVRQAPGKGLEWVAYISSGGTTIYYADTVPGRFTISRDNSKNTLYLQMNSLRAEDTAVYYCARWTNLYAMDYWGQGTTVTVSS VL: DIVLTQSPDSLAVSLGERATINCRASKSVSTSGYSYMHWYQQKPGQPPKFLIYLASNLESGVPDRFSGSGSGTDFTLTISSLQAEDVAVYYCQHSREVPYTFGGGTKVEIKR | 1.08 | 2.92e-05 | 27000 | – | – | –
H3_M105P_L2 (antibody, V domains shown, Fc null human IgG1 / human kappa) VH: QVQLVESGGGVVQPGRSLRLSCAASGFTFSDYGMHWVRQAPGKGLEWVAYISSGGTTIYYADTVKGRFTISRDNSKNTLYLQMNSLRAEDTAVYYCARWTNLYAPDYWGQGTTVTVSS VL: DIVLTQSPDSLAVSLGERATINCRASKSVSTSGYSYMHWYQQKPGQPPKFLIYLASNKESGVPDRFSGSGSGTDFTLTISSLQAEDVAVYYCQHSREVPYTFGGGTKVEIKR | 1.93 | 4.14e-05 | 21500 | – | – | –
H2_G66Q_VL-par (antibody, V domains shown, Fc null human IgG1 / human kappa) VH: QVQLVESGGGVVQPGRSLRLSCAASGFTFSDYGMHWVRQAPGKGLEWVAYISSGGTTIYYADTVKQRFTISRDNSKNTLYLQMNSLRAEDTAVYYCARWTNLYAMDYWGQGTTVTVSS VL: DIVLTQSPDSLAVSLGERATINCRASKSVSTSGYSYMHWYQQKPGQPPKFLIYLASNLESGVPDRFSGSGSGTDFTLTISSLQAEDVAVYYCQHSREVPYTFGGGTKVEIKR | 1.08 | 3.72e-05 | 34400 | 0.83 | 2.78e-05 | 33600
H2_G66Q_L2 (antibody, V domains shown, Fc null human IgG1 / human kappa) VH: QVQLVESGGGVVQPGRSLRLSCAASGFTFSDYGMHWVRQAPGKGLEWVAYISSGGTTIYYADTVKQRFTISRDNSKNTLYLQMNSLRAEDTAVYYCARWTNLYAMDYWGQGTTVTVSS VL: DIVLTQSPDSLAVSLGERATINCRASKSVSTSGYSYMHWYQQKPGQPPKFLIYLASNKESGVPDRFSGSGSGTDFTLTISSLQAEDVAVYYCQHSREVPYTFGGGTKVEIKR | 1.17 | 3.42e-05 | 29100 | 1.2 | 3.59e-05 | 30000
H2_Y60K_L2 (antibody, V domains shown, Fc null human IgG1 / human kappa) VH: QVQLVESGGGVVQPGRSLRLSCAASGFTFSDYGMHWVRQAPGKGLEWVAYISSGGTTIYKADTVKGRFTISRDNSKNTLYLQMNSLRAEDTAVYYCARWTNLYAMDYWGQGTTVTVSS VL: DIVLTQSPDSLAVSLGERATINCRASKSVSTSGYSYMHWYQQKPGQPPKFLIYLASNKESGVPDRFSGSGSGTDFTLTISSLQAEDVAVYYCQHSREVPYTFGGGTKVEIKR | 1.11 | 4.04e-05 | 36500 | – | – | –
H2_K65P_L2 (antibody, V domains shown, Fc null human IgG1 / human kappa) VH: QVQLVESGGGVVQPGRSLRLSCAASGFTFSDYGMHWVRQAPGKGLEWVAYISSGGTTIYYADTVPGRFTISRDNSKNTLYLQMNSLRAEDTAVYYCARWTNLYAMDYWGQGTTVTVSS VL: DIVLTQSPDSLAVSLGERATINCRASKSVSTSGYSYMHWYQQKPGQPPKFLIYLASNKESGVPDRFSGSGSGTDFTLTISSLQAEDVAVYYCQHSREVPYTFGGGTKVEIKR | 1.13 | 2.62e-05 | 23200 | – | – | –
H3_M105P_VL-par (antibody, V domains shown, Fc null human IgG1 / human kappa) VH: QVQLVESGGGVVQPGRSLRLSCAASGFTFSDYGMHWVRQAPGKGLEWVAYISSGGTTIYYADTVKGRFTISRDNSKNTLYLQMNSLRAEDTAVYYCARWTNLYAPDYWGQGTTVTVSS VL: DIVLTQSPDSLAVSLGERATINCRASKSVSTSGYSYMHWYQQKPGQPPKFLIYLASNLESGVPDRFSGSGSGTDFTLTISSLQAEDVAVYYCQHSREVPYTFGGGTKVEIKR | 1.63 | 4.03e-05 | 24700 | – | – | –
H3_M105P_L1 (antibody, V domains shown, Fc null human IgG1 / human kappa) VH: QVQLVESGGGVVQPGRSLRLSCAASGFTFSDYGMHWVRQAPGKGLEWVAYISSGGTTIYYADTVKGRFTISRDNSKNTLYLQMNSLRAEDTAVYYCARWTNLYAPDYWGQGTTVTVSS VL: DIVLTQSPDSLAVSLGERATINCRASKSVSTQGYSYMHWYQQKPGQPPKFLIYLASNLESGVPDRFSGSGSGTDFTLTISSLQAEDVAVYYCQHSREVPYTFGGGTKVEIKR | 1.55 | 4.35e-05 | 28100 | – | – | –
H2_T56H_L2 (antibody, V domains shown, Fc null human IgG1 / human kappa) VH: QVQLVESGGGVVQPGRSLRLSCAASGFTFSDYGMHWVRQAPGKGLEWVAYISSGGHTIYYADTVKGRFTISRDNSKNTLYLQMNSLRAEDTAVYYCARWTNLYAMDYWGQGTTVTVSS VL: DIVLTQSPDSLAVSLGERATINCRASKSVSTSGYSYMHWYQQKPGQPPKFLIYLASNKESGVPDRFSGSGSGTDFTLTISSLQAEDVAVYYCQHSREVPYTFGGGTKVEIKR | 1.61 | 3.74e-05 | 23200 | – | – | –
H2_T63Y_L2 (antibody, V domains shown, Fc null human IgG1 / human kappa) VH: QVQLVESGGGVVQPGRSLRLSCAASGFTFSDYGMHWVRQAPGKGLEWVAYISSGGTTIYYADYVKGRFTISRDNSKNTLYLQMNSLRAEDTAVYYCARWTNLYAMDYWGQGTTVTVSS VL: DIVLTQSPDSLAVSLGERATINCRASKSVSTSGYSYMHWYQQKPGQPPKFLIYLASNKESGVPDRFSGSGSGTDFTLTISSLQAEDVAVYYCQHSREVPYTFGGGTKVEIKR | 1.15 | 3.06e-05 | 26700 | – | – | –
H2_T57H_L2 (antibody, V domains shown, Fc null human IgG1 / human kappa) VH: QVQLVESGGGVVQPGRSLRLSCAASGFTFSDYGMHWVRQAPGKGLEWVAYISSGGTHIYYADTVKGRFTISRDNSKNTLYLQMNSLRAEDTAVYYCARWTNLYAMDYWGQGTTVTVSS VL: DIVLTQSPDSLAVSLGERATINCRASKSVSTSGYSYMHWYQQKPGQPPKFLIYLASNKESGVPDRFSGSGSGTDFTLTISSLQAEDVAVYYCQHSREVPYTFGGGTKVEIKR | 0.98 | 3.78e-05 | 38600 | – | – | –
H2_K65P_L1 (antibody, V domains shown, Fc null human IgG1 / human kappa) VH: QVQLVESGGGVVQPGRSLRLSCAASGFTFSDYGMHWVRQAPGKGLEWVAYISSGGTTIYYADTVPGRFTISRDNSKNTLYLQMNSLRAEDTAVYYCARWTNLYAMDYWGQGTTVTVSS VL: DIVLTQSPDSLAVSLGERATINCRASKSVSTQGYSYMHWYQQKPGQPPKFLIYLASNLESGVPDRFSGSGSGTDFTLTISSLQAEDVAVYYCQHSREVPYTFGGGTKVEIKR | 1.07 | 3.08e-05 | 28800 | – | – | –
H2_T56H_L1 (antibody, V domains shown, Fc null human IgG1 / human kappa) VH: QVQLVESGGGVVQPGRSLRLSCAASGFTFSDYGMHWVRQAPGKGLEWVAYISSGGHTIYYADTVKGRFTISRDNSKNTLYLQMNSLRAEDTAVYYCARWTNLYAMDYWGQGTTVTVSS VL: DIVLTQSPDSLAVSLGERATINCRASKSVSTQGYSYMHWYQQKPGQPPKFLIYLASNLESGVPDRFSGSGSGTDFTLTISSLQAEDVAVYYCQHSREVPYTFGGGTKVEIKR | 1.3 | 3.45e-05 | 26400 | – | – | –
51B12_VH_L2 (antibody, V domains shown, Fc null human IgG1 / human kappa) VH: QVQLVESGGGVVQPGRSLRLSCAASGFTFSDYGMHWVRQAPGKGLEWVAYISSGGTTIYYADTVKGRFTISRDNSKNTLYLQMNSLRAEDTAVYYCARWTNLYAMDYWGQGTTVTVSS VL: DIVLTQSPDSLAVSLGERATINCRASKSVSTSGYSYMHWYQQKPGQPPKFLIYLASNKESGVPDRFSGSGSGTDFTLTISSLQAEDVAVYYCQHSREVPYTFGGGTKVEIKR | 1.12 | 2.86e-05 | 25600 | – | – | –
H2_T56H_VL-par (antibody, V domains shown, Fc null human IgG1 / human kappa) VH: QVQLVESGGGVVQPGRSLRLSCAASGFTFSDYGMHWVRQAPGKGLEWVAYISSGGHTIYYADTVKGRFTISRDNSKNTLYLQMNSLRAEDTAVYYCARWTNLYAMDYWGQGTTVTVSS VL: DIVLTQSPDSLAVSLGERATINCRASKSVSTSGYSYMHWYQQKPGQPPKFLIYLASNLESGVPDRFSGSGSGTDFTLTISSLQAEDVAVYYCQHSREVPYTFGGGTKVEIKR | 1.29 | 3.38e-05 | 26200 | 0.591 | 1.51e-05 | 25600
